# In the RNAGym collection of RNA variant scans (doi:10.1073/pnas.2313332121):
# B1: TPR t1 (parent)
# chain: GACCAAUCUGCCCUCAGAGCUCGAGAACAUCUUCGGAUGCAGAGGAGGCAGGCUUCGGUGGCGCGAUAGCGCCAACGUCCUCAACCUCCAAUGCAUCCCACCACAUGAUGAUGCCUGAAGAGCCUUGGUUUUUUG
# Variants of: B1
# Assay: polymerase ribozyme fitness, log enrichment relative to wild type (log ratio); higher = more active; in vitro selection for triplet polymerase activity
# Method in brief: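 After PCR construction and transcription, each subunit's mutant library from a heterodimeric triplet polymerase ribozyme was annealed with a biotinylated primer, the partner subunit and triplets. Incubation was frozen, at −7 °C, and extended constructs were gel-excised, bound to streptavidin beads and amplified by RT-PCR, in one selection round done in triplicate. Fitness is the logarithm of a genotype's enrichment divided by that of the wild type, from inverse-variance-weighted replicate averages of Illumina-sequenced inputs and outputs. The base of the logarithm is 2, and genotypes needed ≥10 input reads and ≥1 read per output.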
row,Variant,polymerase ribozyme fitness (log ratio)
1,U9G C13A U59A,-0.0719
2,U9G A27U A100U,-3
3,U9G C13U C104A,-1.55
4,U9G C13U A91U G113A A119C G128A,-4.02
5,U9G G19C C56A G69C,-6.2
6,U9C G45C U131G,-1.16
7,U9G A27C C62U C70U C98U,-6.21
8,U9C G39A G63U,-1.02
9,U9G C12G C53A C99U C102U,-5.32
10,U9G C56G,-0.492
11,U9C G35U A50U,-6.01
12,U9G C28U G117C U131G,-4.94
13,U9G C73A,-0.668
14,U9G C11G C40U,-4.28
15,U9G G17C A26G,-3.96
16,U9C G45A G48U,-0.16
17,U9G C11U A27G G47C U78C C86U,-2.22
18,U9G C70U C98U,-1.09
19,U9G C11A G39C C72G G77C A118U,-2.83
20,U9C G45C G48A A90C,-0.81
21,U9C G113A C114G,-0.741
22,U9G C102U,-1.48
23,U9G A41U G71A U81C U96A,-5.71
24,U9G A37U G42C C86A U112A,-2.41

row,Variant,polymerase ribozyme fitness (log ratio)
1,U9C G58C C114A G127U,-3.7
2,U9G A37U G42A G45C A95G,-3.58
3,U9G C13A C22G G48A,-3.85
4,U9C U55G G69A,-1.8
5,U9G A46U G60U A91C G117A,-0.876
6,U9G A18U C56A U87G,-2.1
7,U9G A29G G42U,-2.93
8,U9G A16U U59C U81A C94A,-1.92
9,U9G A66C C104U,-0.809
10,U9G A46C U87A G93C C115A U116C A119C,-3.97
11,U9C G42A,-1.15
12,U9C G35U C101A,-5.93
13,U9G C13A C28U G47U C86G,-1.92
14,U9G C28A U133A,-4.24
15,U9G A16C A68U U109A,-6.08
16,U9C G36U G47U,-2.03
17,U9G C34A C73A G120C,-0.727
18,U9G C85U C97A C115G,-4.92
19,U9C G60A C102G G110C G128U,-7.66
20,U9G C80U U106C,0.49
21,U9G C40U U54A C85A,-1.24
22,U9C U78G A103U,-5.95
23,U9G C80A,-2.27
24,U9G C11A U54G,-0.122

row,Variant,polymerase ribozyme fitness (log ratio)
1,U9G C76G A90C C101U,-1.34
2,U9G G23A G60A G71C G113U G135C,-5.28
3,U9C U92A,-1.27
4,U9C G51U G61C C97A G120A U130C,-4.88
5,U9G C31A A46C G71A G110A,-6.51
6,U9G A43U G52U C72A C82A,-2.31
7,U9C G36U G63A,-1.4
8,U9C G69U U130G,0.198
9,U9G A27G G60A A66C U78G G113U,-6.12
10,U9G C15U A90G C124A,1.55
11,U9C G63A A74C C89A C104A U112C,-5.39
12,U9C G69U C72G,-1.2
13,U9G A26G G45U C73U C99U U112A,-4.85
14,U9C G107U U112A A119G,-4.69
15,U9G G17A A18U A46U C73A A84G U87A U112C G127C U134A,-3.68
16,U9G C11G C94U A111C,-4.33
17,U9G C86G A119U,0.167
18,U9C G61A C89U A105C,-3.08
19,U9G C56G U81G,-1.23
20,U9G C13A,-0.971
21,U9G C15U U21C A83C,-0.505
22,U9C C104U G122A,0.29
23,U9G C70A C85U A90G C102A,-4.92
24,U9G G23U A43U G71A G110C C124G U126G,-8.22

row,Variant,polymerase ribozyme fitness (log ratio)
1,U9C G47C G71U U132C,-2.26
2,U9C G44U G63A C89G U109A,-7.22
3,U9G A84C C98A C123A,-4.03
4,U9G C40G C53G U130G,-1.2
5,U9G A24G C73U,-0.355
6,U9G C22G C34G G69U,-3.72
7,U9G G36A U87C C99U,-3.41
8,U9G C64U,0.223
9,U9G C89A A100U U116A,-4.84
10,U9G G36A,-0.196
11,U9C G69U,1.23
12,U9C G69A,-2.17
13,U9G C11G,-4.02
14,U9G A121G U131A,1.98
15,U9G C53G C115A G127U,-0.417
16,U9C G69U U78G A103U,-1.88
17,U9G G23A,-5.2
18,U9C G10A G52A G63U,-2.31
19,U9G C72U,0.16
20,U9C G60U,0.0949
21,U9G G10C A29U G42U A43G A46C C94U,-4.04
22,U9G C13U C15A C40U G61C,-2.7
23,U9G C101U,0.459
24,U9C G10C C62G C72A A111G U125C,-4.6

row,Variant,polymerase ribozyme fitness (log ratio)
1,U9C G36U G63C U112C G128C,-1.66
2,U9C U14A G36C,-1.95
3,U9G C12A G42C G61C C115U,-3.63
4,U9G A103U,-4.16
5,U9G A27C C114A,-3.98
6,U9G G36A C70U,-0.939
7,U9G C11A G63C,-0.534
8,U9G C11A U87A,-0.55
9,U9G G23A C31U U38A C104A U112A A121C U126G,-6.73
10,U9G C13A G110A,-1.62
11,U9G G19U G44A G58C,-3.46
12,U9G C56G A103U,-4.39
13,U9G C12G U78C,0.323
14,U9G C34A A41G,-3.4
15,U9G A37C G44U,-1.47
16,U9G C31G U87A C114A,-5.66
17,U9C G17U U54C C79A C98U C101A,-5.9
18,U9G G19A G110C U112C C123G C124G,-7.8
19,U9G A26C A37G A111U U131C,-5.09
20,U9G A95G,0.394
21,U9G A41U G61U U87A G110A,-3.56
22,U9G,0.36
23,U9G C11A U78C,-0.41
24,U9G A26C,-4.47

row,Variant,polymerase ribozyme fitness (log ratio)
1,U9G A29G G39U U54A A83U,-3.38
2,U9G A37U C40U G45A C104U,-0.895
3,U9C G48U C123U,1.12
4,U9C G47C G71U,-2.13
5,U9G A46C,-0.961
6,U9G C98U,-0.308
7,U9G C98A,-5.08
8,U9G A37U A100C,-0.694
9,U9G A83C,0.502
10,U9G C62U A74U,-0.576
11,U9G A46G C73U A75G U96A U106G,-3.78
12,U9G C70A C86A C123U,-0.996
13,U9G C97A A111G,-6.78
14,U9G A16U G19U A37G A43U G69U C101A,-4.92
15,U9C U14G C80G,-6.05
16,U9C G69U A83U,-0.05
17,U9G C88U,-0.0494
18,U9G C88A,-0.00805
19,U9C G63C U96G C97A C123A,-3.72
20,U9G C53A,0.283
21,U9G A83C C85U A121C U130C,1.97
22,U9G C12G G60U,0.216
23,U9G A121U C123U,2.06
24,U9G C56G G61U G93C,-3.2

row,Variant,polymerase ribozyme fitness (log ratio)
1,U9G A118U G120U G122A,1.52
2,U9G C34U A68G U78C C97U A111U,-6.62
3,U9C G60A C80U C89U,-1.82
4,U9C G60U C82U U96C,0.305
5,U9C G36C A50U C70A A75U U106A,-6.28
6,U9C C104U,0.605
7,U9C C99U,-1.75
8,U9C G17U C72G A83C,-1.63
9,U9G C115U,-0.945
10,U9G C53A G71U C86U A100U G110U,-4.22
11,U9G G10U C70G U109G,-6.73
12,U9G A43G C49A U81A G127U U133G,-2.11
13,U9C G61A,0.487
14,U9G A100U G128A,-1.71
15,U9G A41U A95C U131A,-1.93
16,U9G C22A C34A C82U U130C,-6.39
17,U9C U116C U129A,-0.962
18,U9G A41U A95C,-2.53
19,U9G C97G C104U,-2.99
20,U9G C12G A91C G127C U129A,-2.32
21,U9G A50C G63C,-1.21
22,U9G C11A A18G A41U U78G,-4.42
23,U9C U81C C98A,-5.87
